Laboratory results as given in US5763571A, “Inhibiting protein interactions” (The General Hospital Corporation, priority 1995, dated 1998).
One block for each molecule: values may come before it.

Molecular target: T1, Raf(1-257) (Homo sapiens, UniProt P04049)
T1 construct: expressed in transfected cells; host or cells: yeast strain GGY1::171, plasmid pMA424
Experiment: Yeast two-hybrid GAL4/lacZ interaction with Raf(1-257)
Format: cell-based
Conditions: X-gal plates
Description: Detection of protein-protein interactions using the two-hybrid system in yeast was carried out as follows. The vector pMA424 (Chien C. T., Bartel P. L., Sternglanz, R., Fields, S., Proc. Natl. Acad. Sci. U.S.A. 88, 9578-9582 (1991)) containing either Raf(1-257) or Raf(1-257, C168 →S) DNA sequences fused in frame with the sequences encoding GAL4 (1-147), was cotransformed into yeast together with the pACTII vector containing no insert as a control, or DNA sequences encoding V12GrasH, V12GrasHΔCT, murine rap1b, or rap1bΔCT fused in frame with the GAL4 transactivation domain II. […]
The DNA sequences encoding Raf(1-257) and Raf(1-257, C168 →S) were prepared by the PCR using the plasmids RSV-C4 and RSV-PM17 (Bruder, J. T., Heidecker, G. & Rapp, U.R. Genes Dev. 6, 545-556 (1992)) respectively as templates. […] The reading frame and the C168 →S mutation were verified by DNA sequencing. […] Transformants were grown on SDHis-Leu-plates as in (Durfee, T. et al. Genes Develop. 7, 555-569 (1993); Chien C. T., Bartel P. L., Sternglanz, R., Fields, S., Proc. Natl. Acad. Sci. U.S.A. 88, 9578-9582 (1991)) for 3 days before replica plating to X-gal containing plates, which in turn were scored for blue colonies 72 hours later.
Ras effector domain mutants which impair the interaction between V12GrasHΔCT and Raf(1-257) were analyzed as follows. […]

- lacZ expression on coexpression with wild-type Raf(1-257) (in words): interact strongly
B1: V12Grap-1b: Rap 1b low molecular weight GTP binding protein variant, GAL4 fusion (protein)
chain: ANFNQSGNIADSSLSFTFTNSSNGPNLITTQTNSQALSQPIASSNVHDNFMNNEITASKIDDGNNSKPLSPGWTDQTAYNAFGITTGMFNTTTMDDVYNYLFDDEDTPPNPKKEMREYKLVVLGSVGVGKSALTVQFVQGIFVEKYDPTIEDSYRKQVEVDAQQCMLEILDTAGTEQFTAMRDLYMKNGQGFALVYSITAQSTFNDLQDLREQILRVKDTDDVPMILVGNKCDLEDERVVGKEQGQNLARQWNNCAFLESSAKSKINVNEIFYDLVRQINRKTPVPGKARKKSSCQLL

- lacZ expression on coexpression with wild-type Raf(1-257) (in words): interact strongly
B2: V12Grap-1bΔCT: V12Grap-1b lacking the carboxyterminal 4 amino acids (protein)
chain: ANFNQSGNIADSSLSFTFTNSSNGPNLITTQTNSQALSQPIASSNVHDNFMNNEITASKIDDGNNSKPLSPGWTDQTAYNAFGITTGMFNTTTMDDVYNYLFDDEDTPPNPKKEMREYKLVVLGSVGVGKSALTVQFVQGIFVEKYDPTIEDSYRKQVEVDAQQCMLEILDTAGTEQFTAMRDLYMKNGQGFALVYSITAQSTFNDLQDLREQILRVKDTDDVPMILVGNKCDLEDERVVGKEQGQNLARQWNNCAFLESSAKSKINVNEIFYDLVRQINRKTPVPGKARKKSS
